# Assay results taken from the nanobody polyreactivity screen of Harvey et al. (2022).
# Experiment: yeast display, Sf9 membrane polyspecificity reagent, FACS + sequencing; frameworks hold sequencing errors
# Procedure, shortened: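 Galactose-induced (36–48 hours) yeast carrying a synthetic nanobody display library were exposed to 10% biotinylated, detergent-solubilized Sf9 membrane reagent at 4 °C for 1 hour. FACS followed streptavidin microbead enrichment, using low and high (top ~1%) gates for expression (anti-HA) and reagent binding (streptavidin). Colony PCR, MiSeq 2 × 250 sequencing and CDR-length filtering followed. Labels for polyreactivity reflect the gate of origin.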
row,Sequence,polyreactivity (PSR sort gate)
1,QVQLVESGGGLVQAGGSLRLSCAASGRTFNRNAMGWYRQAPGKERELVAAISRGGGGTFYADSVKGRFTISRDNAKNTVYLQMNSLKPEDTAVYYCAAVPIAADKANGYDYWGQGTQVTVSS,low polyreactivity
2,QVQLVESGGGLVQAGGSLRLSCAASGRIFKWYAMGWYRQAPGKERELVAAITWRGGSTNYADSVKGRFTISRDNAKNTVYLQMNSLKPEDTAVYYCAVGTVFLTYRGYEYWGQGTQVTVSS,high polyreactivity
3,QVQLVESGGGLVQAGGSLRLSCAASGFTFLYNVMGWYRQAPGKERELVAAISQSGTDTYYADSVKGRFTISRDNAKYTVYLQMNSLKPEDTAVYYCAVDVYFYYRHYGYWGQGTQVTVSS,low polyreactivity
4,LVQLVESGGGLVQAGGSLRLSCAASGRIIPPNAMGWYRQAPGTERELVATITWGVGSTYYADSVKGRFTISRDNAKNTVYLQMNSLKPEDTAVYYCYARRFRPYGFYYWGQGTQVTVSS,high polyreactivity
5,QVQLVESGVGLVQAGGSLRLRCAASGSILGGNAMGWYRQAPGKERELVAAITFSGGGTYYADSVKGRFTISRDNAKNTVYLQMNSRKPEDTAVYYCNAFAPDYYHVYPAEDYWGQGTQVTVSS,low polyreactivity
6,QVQLVESGGGLVQAGGSLRLSCAACGFTFRYNAMGWYRQAPGKERELVAAITRGGGNTYYADSVKGRFTISRDHAKNTVYLQMNSLKPEDTAVYYCAAYSNGGRYDYGYWGQGTQVTVSS,high polyreactivity
7,QVQLEESGGGLVQAGGSLRLSCAATGRIFSYAMGWYRQAPGKETELVAGISRSGGSTYYADSVKGRFTISSDNAKITVYLQMNSVKPEDTAVYYCARYDRGGRHYYYWGQGTQVTVSS,high polyreactivity
8,QVQLVETGGGLVQAGGSLRLSCAASGSIFTYYAMGWSRQAPGKERELVAAITSGGSTYYADSVKGRFTISRDNAKNTVYLQMNSLKPEDTAVYYCNAVTFYRYYTGKYDYWGQGTQVTVSS,high polyreactivity
9,QVQLVESGGGLVQAGGSLRLSCAASGRTFGYNVMGWYRQAPGKERELVAAISSGGNTYYADSVKGRFTISRDNAKNTVYLQMNSLKPEDTAVYYCNARQYRYLSDRMNYWGQGTQVTVSS,low polyreactivity
10,QVQLEESGGGIVQAGRSLRLSCAASGITFDANTMGWYRQAPGKERELVAAITGGGSTNYADSVKGRFTISRDNAKNTVYLHMNSPKPEDTAVYYCPADLIYKYNYWGQGTQVTVSS,low polyreactivity
11,QVQLVESGGGLVQARGSLRLSCAASGGIFDTYVMGWYRQAPGKERELVAAISCSGSTTYADSVKGRFTISRDNAKYTVYLQMNSLKPEDTAVYYCNADYSTIWRYDYWGQGTQVTVSS,low polyreactivity
12,QVQLVESGGGLVQAGGSLRLRCAASGRIFPWYAMGWYRHAPGGEREFVAVISRSGGSTYYADSVKGRFTISRDNAKNTVYLQMNSLKPEDTAVYYCASDGKFEYDYWGQGTQVTVSS,low polyreactivity
13,QVQLVESGGGLVQAGGSLRLSCAASGAIFRYYAMGWYRPAPGKEREFVAAIRGSGGSPYYADSVKGRFTISRDNAKNTVYIQMISLKPEDTAVYYCAARKYSDRQVWYCYWGHGTQVTVSS,high polyreactivity
14,QVQLVESGGGLVQAGGSLRLSCAASGFTFAYYTMGWYRQAPGKERELVAAISWSGSSTYYADSVKGRFTISRDNAKNTVYLQMNSLKPEDTAVYYCAAKGWYVQHFKRGLYNYWGQGTQVTVSS,high polyreactivity
15,EVQLVESGGGLVQPGGSLRLSCAASGYIYSRYRMGWYRQAPGKGREFVAAISGGSSTNYADSVKGRFTSSRDNSKNTVYLQMNSLRAEDTAVYYCAAYKIDSDQRVYWGQGTQVTVSS,low polyreactivity
16,QVQLVESGGGLVQAGGSLRLSCAASGSTFSQNAMGWYRQAPGKERELVAVISSSGGRTNYADSVKGRFTISRDNAKNTVYLQMNSLKPEDSAVYYCAKRLRVLYYYWGQGTQVTVSS,high polyreactivity
17,QVQLVESGGGLVQAGGSLRLSCAASGRIFGRNAMGWYRQAPGKERELVAAISRSGGSTYYADSVKGRFTISRDNAKNTVYLQMNSLKPEFTAVYYCAADVYRTWYWWFDYWGHGTQVTVSS,high polyreactivity
18,QGQLVESGGGLVQAGGSLRLSCAASGRIFPAYGMAWYRQAPGQERELVATIDNGGGTYYADSVKGRFTISRDNAKNTVYLQMNSLKPEDTAVYYCARDRHVRWGLKMDFWGQGTQVTVSS,low polyreactivity
19,QVQLVESGGGLVQAGGSLRLSCAASGRTFRSNAMGWYRQAPGKERELVAAISNSGASTYYADSVKGRFTISRDNAKNTFYLQMNSLKPEDTAVYYCAADYYRPYRYDYWGQGTQVTVSS,high polyreactivity
20,QVQLVESGGGLVQAGGSLRLICAASGSTFTGYAMGWYRQAPGKERELVAGITGSGGSTYYADSVKGRFTISRDNAKNTVYLQMNSLKPEDTAVYYCAAELYDYGDLYYSEYDYWGQGTQVTVSS,low polyreactivity
21,QVQRVESGGGLVQAGGSLRLSCAASGSIFAVYAMGWYRQAPGNERELVAAINRSGDSTYFADSVKGRFTISRDNAKNTVYLQMKSLKPEDTAVYYCAADWYWWYTRSWVDYWGQGTQVTVSS,high polyreactivity

row,Sequence,polyreactivity (PSR sort gate)
1,QVQLVESGGGLVQAGGSLRLSCAASGIISSVYAMGWYRQAPGKERELVAAISGSGGSTYYADSVKGRFTISRDNAKNTVYLQMNSLKPEDTAVYYCAKGYQYQGNSYGYWGQGTQVTVSS,low polyreactivity
2,QVQLVESGGGLVQAGGSLRLSCAASGIIFRTYAMGCYRQAPVKERELVAAITGSGGITYYADSVKGRFTISRDNAKNTVYLQMNSLKPEDTAVYYCAARGTRDGVQRYGYWGQGSQVTVSS,high polyreactivity
3,QVQLVESGGGLVQAGGSLRLSCASSGSIFYRNTMGWYRQAPGKEREFVAAIRTSGGSTYYADSVKGRFTISRDNAKNTVYLQMNSLKPEDTAVYYCAAEYRYGWAYRKGGDYWGQGTQVTVSS,high polyreactivity
4,QVQLVESGGGLVQAGGSLRLSCAASGRIFFYYAMGWYRQAPGTERELVAAISKSGGRTYYADSVKGRFTISRDNAKNTVYLQMNSLKPEDTAVYYCAAYSAHDSDYWGQGTQVTVSS,high polyreactivity
5,QVQLVESGGGLVQAGGRLRLSCAASGSTFEVNAMGWYRQAPGKERELVAAISSSAGDTYYADSVKGRFTISRDNAKYTVYLQMNSLKPEDTAVYYCAADYGYSPFDYWGQGTQVTVSS,low polyreactivity
6,QVQLVESGGGLVQAGGSLRLSCAPSGRTLYNYAMGWTRQAPGKERELVASITWSGGSTYYADSVKGRFTISRDNAKNTVYLQMTSLKPEDTAVYYCAAESSPGTFVRYGYRRYYYWGQGTQVTVSS,low polyreactivity
7,QVQLVESGGGLVQAGGSLRLSCAASGSTFITYAMGWYRQAPGKERELVAAIRFSGDTTYADSVKGRFTISRDNAKNTVNLQLNCLKPEDTAVYYCAVVLYRYDGRKYWRDYWGQGTQVTVSS,high polyreactivity
8,QVQIVESVGGLFQAGGTLRLICAASGLTFRSYTMGWYRQAPGKERELVAAISSGGSTYYADSVKGRFTISRDNAKNTVYLQMNSLKPEDTAVYYCAARAPWPKWGYYYWGQGTQVTVSS,high polyreactivity
9,QVQLVESGGRLVKAGASHRLSCAASAITCGRNTRGWYRQAPGKARELVAAIDSGVNTYADSVKGRFTISRDNAKYTVYLQMTSLKPEDTSVYYWAFVGGEFSSYGYWGLGTQVTVSS,low polyreactivity
10,QVQLVESGGGLFQAGGSLRLSCAASGSIFNRYAMGWYRQAPGKERELVAAISSGGRTKYADSVKGRFTISRDNAKNTVYLQMNSLKPEDTAVYYCNAAYFLSGTCRTFDYWGQGTQVTVSS,high polyreactivity
11,QVQLVESGGGLVQAGGSLRLSCAASGSILGLYAMGWYRQAPGKERELVASITSSGSTYYADSVKGRFTISRDNAKNTVYLQMNSLKPEDTAVYYCAARYYYGRRYDYWGQGTQVTVSS,low polyreactivity
12,QVQLVESGGGLVQAGGSLRLSCAASGSIFGAYAMGWYRQAPGKERELVAVIRWGGGSTYADSVKGRFTISRDNAKNTVYLQMNSLKPEDTAVYYCNRDKSWADLYSHAYDYWGQGTQVTVSS,low polyreactivity
13,QVQLVESGGGLVQAGGSLRLSCAASGVNAMGWYRQAPGKEREFVAAITSIGGSTYYADSVKGRFTISRDNAKNTVYLQMNSLKPEDTAVYYCNTDRGPVKVSPLYESWGQGTQVTVSS,low polyreactivity
14,QVQLVESGGGLVQAGGSLRLRCAASGRTVVGTTMGWYRQAPGKEREVVAAISSGGRTYYADSVKGRFTISRDNAKNTVYLQMNSLIPVDTAVYYCAARRRGKVVPTSQFDYWGQGTQVTVSS,high polyreactivity
15,QVQLVESGGGLVQAGGSLRLSCAASGSIYYTNAMGWYRQAPGKERELVAAISYGGTTTYADSVKGRFTISRDNAKNTVYLQMNSLKPEDTAVYYCNADWLYYGYWGYGHIWYDYWGQGTQVTVSS,low polyreactivity
16,QVQLVESGGGLVQAGGSLRLSCAASGRTFRFYAMGWYRQAPGKERELVAAITSGGSTTYADSVKGRFTISRDNAKNTVYLQMNSLKPEDTAVYYCNADRARAYDYWGQGTQVTVSS,high polyreactivity
17,QVQLVESGGGLVQAGGSLRLSCAASGITFYYYAMGWYRQAPGKERELVAAISDNGSRTYYADSVKGRFTISRDNAKNTVYLQMNSLKPEDTAVYYCAAEGSYGYDYWGQGTQVTVSS,high polyreactivity
18,QVQLVESAGGLVQAGGSLRLSCAASGSIFYYYAMGWYRQAPGKERELVATISSSSGSTYYADSVKGRFTISRDNAKYTVYLQMNRLKPEDTAVYYCATVSGSVWQRWVYANYDFWGQGTQVTVSS,low polyreactivity
19,QVPLVESGGGLVQAGGSLRLSCAASGRIFGTNTMGWYRQAPGKEREWVAAITWSGGSTYYADSGTGRFTISRDNAKNPVYLQMNSLNPEDTAGYYCNVESAYAYHGPVDYWGQGTQVTVSS,low polyreactivity
20,QVQLVESGGGLVQAGGSRRLSCAASGSIFVKYAMGWYRQAPGKERELVAAISQSGVRTYYADSVKGRFTISRDNAKNTVYLQMNSLKPEDTAVYYSAAYSGYYYWGQGTQVTVSS,high polyreactivity
